What was measured:
[1] = target: glucose 6-phosphate dehydrogenase from Leuconostoc mesenteroides, guanidine-denatured (Leuconostoc mesenteroides) (UniProt P11411)
[2] = target: tobacco Trx f C19/71S double mutant, His-tagged (Nicotiana tabacum); assay: non-reducing SDS-PAGE with Western blot
[3] = target: tobacco Trx f C71S mutant, His-tagged (Nicotiana tabacum); assay: non-reducing SDS-PAGE with Western blot

Sequence of UniProt P11411 (P11411 whole entry): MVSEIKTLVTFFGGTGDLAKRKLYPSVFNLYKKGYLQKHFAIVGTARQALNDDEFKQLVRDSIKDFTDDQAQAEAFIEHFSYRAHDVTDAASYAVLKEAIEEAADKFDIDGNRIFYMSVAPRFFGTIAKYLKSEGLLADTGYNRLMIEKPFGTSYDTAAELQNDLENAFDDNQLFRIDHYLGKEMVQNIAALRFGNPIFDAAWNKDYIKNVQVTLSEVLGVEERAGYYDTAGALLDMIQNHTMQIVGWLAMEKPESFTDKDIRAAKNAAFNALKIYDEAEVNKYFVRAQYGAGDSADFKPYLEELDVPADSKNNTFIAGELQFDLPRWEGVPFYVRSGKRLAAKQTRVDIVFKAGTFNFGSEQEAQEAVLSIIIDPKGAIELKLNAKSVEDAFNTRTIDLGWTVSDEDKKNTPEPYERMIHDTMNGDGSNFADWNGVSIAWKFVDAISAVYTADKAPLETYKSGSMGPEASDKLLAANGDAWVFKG

| Substance | chaperone foldase activity (G6PDH reactivation) relative to wild-type Trx f [1] [% decrease] | stoichiometry N [2] | stoichiometry N [3] |
| --- | --- | --- | --- |
| tobacco Trx f C19/71S double mutant, His-tagged (enzyme) | 80 | 2 |  |
| tobacco Trx f C71S mutant, His-tagged (enzyme) | 80 |  | 2 |

Reference: publication PMC3245471
